Reference: the DeepSol protein solubility set

Test: soluble on expression in E. coli; label from the status in PepcDB or PDB records

Row | Sequence | soluble on expression in E. coli
1 | MSLQMKPEDILENIFYFRVCSYTEQIALVNHLEKFISENKDVKVVIVDSITFHFRQDYDDLAQRTRVLSEMALKFMKLAKKFSLAVVLLNQVTTKFSEGSFQLALALGDSWSHSCTNRVILYWNGDERYAYIDKSPSLPSASASYTVTSRGLRNSSEGHHHHHH | not soluble
2 | MSLQNPFVPQLVYIEPRALEYPLGQELQDKFENMGIEIRETTSHNQVRNIPGKNHLQQYRNAKSTLVIGVRKTLKFDSSKPSAEYAIPFATGCMGHCHYCYLQTTMGSKPYIRTYVNVEEILDQADKYMKERAPEFTRFEASCTSDIVGIDHLTHTLKRAIEHFGQSDLGKLRFVTKFHHVDHLLDAKHNGKTRFRFSINADYVIKNFEPGTSPLDKRIEAAVKVAKAGYPLGFIVAPIYIHEGWEEGYRHLFEKLDAALPQDVRHDITFELIQHRFTKPAKRVIEKNYPKTKLELDEEKRRYKWGRYGIGKYIYQKDEEHALREALESYIDTFFPNAKIEYFTEGHHHHHH | soluble
3 | MSLQQAVGMYVEAPTPDEAARLINSGRKLGIVIAVGVCEVFYTGRAAASLGPTRRLVILKRDGTLLVHEAEKAQPKIWNPPGSSTAAYVEGGKLVVKSIRSRPFETVRVIFDKVDFIAAFDVGATELTLVGSERDVVGALVKNPSIIEEGLEVVGVEVPTDVGHLDILARDKNGRYVIIEVKRDLATHEAVFQLARYVELYRRKGYDVRGILVAGDITASAYDYLKRYGLNFVKINPRELMVLTNKNPLNAKEGHHHHHH | soluble
4 | MSLQTIEEMDAYPAVDDSGDHLLDPNMIPTAATEVVMSGDGIERQFGDEEDTYQYEYTYEDDPQLEIGEEEVVVTDEAEYQEHWKDEEK | not soluble
5 | MSLQVKHLLLIAILALTAACSSNKETVDENLSESQLYQQAQDDLNNKSYNSAVTKLKALESRYPFGRYAEQAQLELIYANYKNMEPEAARAAAERFIRLHPQHPNVDYAYYLKGLSSFDQDRGLLARFLPLDMTKRDPGAARDSFNEFAQLTSRFPNSRYAPDAKARMVYLRNLLAAYEVHVGHYYLKRQAYVAAANRGRYVVENFQETPAVGDGLAIMVEAYRRLGLDDLASTSLETLKLNYPDNASLKDGEFVARESEADTRSWLAKATLGLIEGGEPPPHMETQAAKDVIKQYEDAEREIPAELKPENQDHSADDEKPESDDDEDSGRSWWSYMTFGLFDEGGSHHHHHH | soluble
6 | MSLRARYKQLVDTFAADIRTGILAPGTRLPTHRELAAREGLALVTASRVYAELEAMGLVSGETGRGTYVRETALPPGQGVDQPATAPGTLDLNFNYPALPGQAELLRSALRQLAATGDLEALLRYQPHAGRSHERATVARYLAGHGLVVEGEQVLLVSGAQHGLSTTLMALLRPGDVVAVDALTYPGFKVVAEAHGLELLAIPLSEQGPDLEAFERLCQRRRVRAVYAMPTLHNPMGWVLDLAWRQRLVAIGRAHGLLIIEDAAYAFLAQDPPAPLAALAPEITVYISGFSKNVATGLRVGYVVAPPAWVALIERAIRTSTWNTPGVMTAMACAWIEDGTVARLEHQKREDAQARQALAREALAGLAYVSHPNSYFLWLPLPEEVRADQVAMALLREKVSVSTAEPFVGAGPVPHAIRLALGSVAMADLGVALARVRQVIGRYAFEGHHHHHH | soluble
7 | MSLRASGSGANPDKTWESRSLPIGNGSLGANILGSVAAERITLNEKTLWKGGPNTSKGAEYYWDVNKQSAGVLKEIRQAFLDEDKEKAAQLTRNNFNGLAAYEEKDETPFRFGSFTTMGELYVETGLNELRMSNYRRILSLDSAMVVVQFDKDGVQYQRKYFISYPDSVMVMKFTANQSGKQNLILSYCPNSEAKSNLRADGKDGLVYTGVLDNNGMKFAFRIKAIHKGGTLEAENDRLIVKGADEVVFLLTADTDYKMNFNPDFKDPKTYVGNDPEQTTRIMMDQAVQKGYDELYRNHEADHTALFNRVRLQLNPDISSPNLPTYQRLANYKKGTPDYQLEQLYYQFGRYLLIASSRPGNMPANLQGMWHNNLDGPWRVDYHNNINIQMNYWPACSANLSECTWPLIDFIRSLVKPGEQTAQAYFNARGWTASISANIFGFTAPLSSNMMSWNLNPTAGPWLATHIWEYYDYTRDKKFLKEIGYDLIKSSAQFAVDHLWHKPDGTYTAAPSTSPEHGPIDEGVTFAHAVVREILLDAIQASKELGIDSKERKQWEKILDKLVPYRIGRYGQLMEWSTDIDDPEDEHRHVNHLFGLHPGHTISPITTPKLAEAAKVVLEHRGDGATGWSMGWKLNQWARLQDGNHAYKLYGNLLKNGTLDNLWDTHAPFQIDGNFGGTAGITEMLLQSHMGFIQLLPALPDAWKNGSITGICAKGNFEISISWKEGQLDKATILSGSGTPCNVRYGDKTLSFSTVKGKKYEITLVGNLLKLEGHHHHHH | soluble
8 | MSLRDLPGQTGVQFTTGGVNHFLSWKSGGERHYFTSLAFTHTNRNRTCWLYGLDYQIKEYTYENKAIPKAQFTGELGYFIPVLSDKGRNVCFRIGLSVLGGFETVNWGTSLLPDGAAVTNGDCFIYGGGLTAAFDVWLTDRIILLMQVKERAFFGTDAGNFHTQIGLGVRLIINEGHHHHHH | not soluble
9 | MSLRERVKAHPKPADEQLLTRIRDHSISMLLNFLNSMFDGVDDSFFELANHAHTNNEQNRYFEAMREIRIKRKGIENHFQQELARLFNQPPSQHKTSESLSDNVDVDVLSLVQNDALEESVAINSMISKARANFSGSLLQFQTRVSSVYGETNEENAVNPLDPEHICKAFSDACIGLDIEIKEKLIVYKQFDRYVMGNLVECLEEANKIMIQAGVMPNLKYTAKKSRVTPRSTSDVSARPLEAQSDANGYDGAGDVFSQVQELLSALRNTASNPEQQQGDPNTGAGGRQAPPPGNVQFIADADLLSILSRLQHSVRTENLAEGPVVALDLRTAVQGLLSEESQKSGKATALDQIDEDLINLVSMLFEFILDDYNLSAPIQVLISRLQIPILKVAIRDKSFFSKPSHPARKLLNALAKAGIGWSDASEKKRDKLYEQIHRAVQRILEEFNGESELFEEIYQEFSQYLSREERKAKLVEQRTKEAEIGRVKSHKAHQVVEQILSEKIAAQPLPPVAVELLRGGWSRVMFLAYLKEDTEHRLNQCTKVVDELTWCLQPHAEVEARQRWVKVVPQLLKNLKAGLKEVSYNSAKLEHMLGELKKALTETFKQQSITSAQNDAPKPPAPVAAVIEQKLTPAIKTAVERQSEYEDAALAEYLTKIDEMECGAWIEFSLVNGTRFRCKLSTKIEDSDTYIFVNRLGLKVVEKTRGELAHELRKGRIKALEEGLLFDRAMNAVIGNLRKMSGEGHHHHHH | soluble
10 | MSLRFLADIEEYIGFEIPKIEAPSQEEVARKKPEFLAKLNDRPESKKDKSEELNKDIMKLYFNGGKKKKIRAVDFVGTIAKIDGVSADDIGIITIMDNASYVEILNGKGPHVLKVMKNTTVKGKQLKVNKANKEGHHHHHH | not soluble
11 | MSLRHSGAPLSPRNVCPMKTIAPCMAAMMLLSGCNGVPTSYVSDPVYSQAFVVTSGAPLPMLLMASAIQWNEDYAVTAKHTPFLRNVVHEGLGDVVFFKHKASSVPHWRQYVPGEAVTAVGFNSFMMPMQGKGHALSSLVRLEGTPGSVFYSVHDGPITKGMSGGPVFADDGKVVGINVAIIPTDEINAGKRPDLVGKDRISVFMSFSEIDKEWRRYQYLLAHKAKPKAPAAVKGYVAVAAKEGHHHHHH | not soluble
12 | MSLRILIVDDEKLTRDGLIANINWKALSFDQIDQADDGINAIQIALKHPPNVLLTDVRMPRMDGIELVDNILKLYPDCSVIFMSGYSDKEYLKAAIKFRAIRYVEKPIDPSEIMDALKQSIQTVLQHQAQQDSEGHHHHHH | soluble
13 | MSLRILVIEDEISLNKTIIDNLNEFGYQTDSSENFKDGEYFIGIRHYDLVLANWTLPDGDGAELVNTIKHKSPRTSVMIMSSKTDKETEIKALKAGADDFVKKPLDFDILLARIEARLRLGGTNVIKIEDLVIDPDEEKITYKGQDIELKGKPFEVLTHLARHSDQIVSKEQLLDAIWEEPELVTPNVIEVAINQIRQKMDKPLNISTIETVRRRGYRFCFPKKSEGHHHHHH | soluble
14 | MSLRIYFDKILERASPKVERQALTHVERLAMVRRHGDFSLAYSTAVQQKLSYFGDADGYIAFGTKMKHHFALGDPVAAPARRPDFIKRFVETAGDPWFVQISEETARVLAGLGYKVNRLGIDTSLVLSEHDFSGKRNETVRYSERWLLKKGFSFEEDKRTVFLDEIARLSENWRGDRIVKRWEMGFLNRPFYDQLGTDMRRFVLHGPDGELIALLDFDPLFRDGKVIGYTTAFKRKHIDASPHAEIGLTKFAVDRFREEGISVVTLGLSPLVDVTPSGFAESDFWRNTFQRAYASPWVNRRRFNLQGQAAFKRRFHGKEEPVYIAFRKGTYVEMLGLLRLVKAIEGHHHHHH | not soluble
15 | MSLRKIHVTIIAPYEGLAETFKRIQNEFEHLDMTIHIADLQQSLPLLTTEVQAQTDIFISRGGTAKVIRTRTEKPVVEVPISGFDILRMILLIQAEREQTEIIAFENISLSFTKVTELIETDIPITAVMKEEEVEPAIIAAKAAGRKMIVGDAITTSLANKHGLEGILITSGEESVRTALEQADLLGRKMNDSKQEGHHHHHH | soluble
16 | MSLRKKIAAFGEVMMRLQVPGYELLSQANTLNYSFSGTGVNVVAALSHLGHEGLLISTLPENSVGDAAVSYIQKLGIQTSLVSRGGKYVGMYFLENGFGARASRVTYSNRLESSFNTASEEIYQFEEIAKEIDIVHFCGITLAMNDTVRHHMKSLARAVKENGGTVVFDCNYRPSLWGEDGYEQAKPHYEEMLGLADIVMMNEKDAMFVLGIKTEETEREAQLVDLIPKVAETYHIATIAGTHRSINSDNTHSLRGFICKDGTFTFAKTLTFSVYDRIGAGDAYTSGIIHGEIKEFAPEKAVSFASAAGMLAHTIVGDTPMSSEKDILRAMTASVGDVEREGHHHHHH | soluble
17 | MSLRKRPDSVTPDLLHVDRSAMGPLAERMRPRTLDDMVGQKRLLAPDSALRRAVESGRVHSMILWGPPGCGKTTLALLLAHYADAEFNAISAVLSGLPEVRQVLAEAAQRFAGGRRTVLFVDEVHRFNKAQQDAFLPHIERGTILFVGATTENPSFELNSALLSRCRVHVLEGVSPQDIVEALQRALHDAERGLGQQTIQVSEASLLEIASAADGDVRRALTLLEIAAELATGEGGEITPRTLLQVLADRTRRFDKNGEQFYDQISALHKSVRSSNPDAALYWLTRMLDGGCDPTYLARRLTRMAIEDIGLADPRAQGMALEAWDIYERLGSPEGELAFAQLVLYLASTAKSNAGYAAFNQARAEVRATGTQEVPLHLRNAPTKLMKTLGYGQDYQYDHDAEGGIALDQTGFPDAMGERVYYNPMPRGMEIKLKEKLDRLRETRGQAREGHHHHHH | soluble
18 | MSLRLGVTGLSRAGKTVFISSLVHNLLNGGRLPLFEAMRSGRVSNVRLEPQPDDAIPRFQYEDHIQALVRDRLWPDSTRAISELRITLDYQSASGWGRWFSAGKLSIDIVDYPGEWLLDLPLLSQDYKQFSDATVALAGSGIRAELAQEWLAIASSLDINAPADEMTARRLAESFAAYLKACKSDERSLSTLPPGRFLMPGDLEGSPALTFAPLPGVTDAKAPKGSLRAMMERRYDAYKSIVVKPFFREHFARLDRQIVLIDTLQAVNRGPEAVQDLERALGDVLACFRPGTNSILSSLIRRRIDKVLIAATKADHLHHESHDRLERLTRRLVDRAITTIGMNGAGIEVMALASVRATREASVRQDGHELPVIVGTPMAGETINGEIFDGNRKTAIFPGDLPEDPEPLFRSIDQDGDKATLPDVNVVRFRPPNIDEPGSGGIRLSVPHIRLDRAMQFLFGDKLAEGHHHHHH | soluble
19 | MSLRLPPPDARPIRVVCISDTHTLELADMPDGDLLIHAGDLCNDGSAKEIQAAVDWLRKLPHPQKVVICGNHDSYFDIRSRRFEDRDQSLATVSSSTASLRSVDDFDFPHCIDWGDIHYLQHSSVTVTFPPLPQTPSSSSALLASRPRSLTIYGAPQIPAIVPFGPEHAFAYPAHHDAWSGTIPPNTDIMVTHTPPQSHLDLSPVFSTGCPFLLSEAWRIRPALHVFGHVHAAYGREPVYWDEAQKAWERICSSRREGHHHHHH | not soluble
